These results are taken from patent US20170304442A1 (SORRENTO THERAPEUTICS, published 2017).

The labels stand for the following.
B1: WIr1B6 (antibody, V domains shown)
VH: QVQLVESGGGLVQPGGSLRLSCAASGFTFDDYAMHWVRQAPGKGLEWVSGISWNSGSIGYADSVKGRFTISRDNAKNSLYLQMNSLRAEDTALYYCAKVRAAAGTGGDYFDYWGQGTLVTVSS
VL: LPVLTQPRSVSGSPGQSVTISCTGSSSDVGRSNFVSWYQQYPGKAPKLMIFDVNKRPSGVPDRFSGSKSGNTASLTISGLQADDEAEYYCSSYAGTWIFGGGTQLTVL
notes: Fully human IgG; also called Wlr1B6
B2: WIr2A2 (antibody, V domains shown)
VH: EVQLVQSGAEVKKPGASVKVSCKVSGYTLTELSMHWVRQAPGKGLEWMGGFDPEDGETIYAQKFQGRVTMTEDTSTDTAYMELSSLRSEDTAVYYCATFMFDHDWFQLDPWGQGTLVTVSS
VL: QSALTQPPSASGTPGQRVTIACSGSSSNIGTNTVNWYQQLPGTAPKLLIYNNNQRPSGVPDRFSGSKSGTSASLAITGLQAEDEADYYCQSYDRSLSGYVFGSGTKLTVL
notes: Fully human IgG; also called Wlr2A2
B3: WIr2A6 (antibody, V domains shown)
VH: EVQLVQSGGGLVKPGGSLRLSCEASGFTVSSYYMNWIRQAPGKGLEWISSFTAEGSTYYADSVRGRFSISRDNAKNSLYLEMTRLRADDTAVYYCARDLDRRDWYGGYFDSWGQGTLVTVSS
VL: LPVLTQPPSVSGAPGQRLTISCTGSSSNIGAGYGVHWYQHLPGSAPKLLIYGNSNRPSGVTDRISGSKSGTSASLAITGLQTGDEADYYCAAWDSYLSGYVFGTGTKVTVL
notes: Fully human IgG; also called Wlr2A6
B4: WI2D9 (antibody, V domains shown)
VH: EVQLVQSGAEVKRSGASVKVSCKLSGDTLTDLSIHWVRQAPGKGLEWMGGFDFEDGEIVYGDKFKGRVTVTEDPSTDTAYMDLKRLTFEDTAIYYCATIKDIPGRYYFDFWGQGTLVTVSS
VL: QSVVTQPPSVSGAPGQRVTISCTGSSSNIGAGYDVHWYQQLPGTAPKLLIYGNSNRPSGVPDRFSGSKSGTSASLAITGLQAEDEADYYCQSYDSSLSGSNWVFGGGTKLTVL
notes: Fully human IgG; also called Wl2D9
B5: WIr2A7 (antibody, V domains shown)
VH: QVQLVQSGAEVKKPGASVKVSCKVSGYTLTELSIYWVRQAPGKGLEWVGGFDPEDGETVYAQNFQGRVTMTEDTSTDTAYMELSSLRSEDTAVYYCATHTSYDKVWGRYRPSLAFDIWGQGTMVTVSS
VL: DIVMTQTPSSLSASVGDRVTITCQASQDISKYLNWYQQKPGKAPNLLIYDASNLETGVPSRFSGSGSGTDFTLTISSLQPEDIGTYYCQQDDNLPLTFGGGTKVEIK
notes: Fully human IgG; also called Wlr2A7
B6: WIr2B5 (antibody, V domains shown)
VH: EVQLVESGAEVKKPGASVKVSCKASGYTFTSYGISWVRQAPGQGLEWMGWISAYNGNTNYAQKLQGRVTMTTDTSTSTAYMELRSLRSDDTAVYYCARDWDSTSWENYYYGMDVWGQGTTVTVSS
VL: B5 VL with K31N, N45K, L73F, G84A, D91H, V104L
notes: Fully human IgG; also called Wlr2B5
B7: WIr1G5 (antibody, V domains shown)
VH: QVQLVESGGGLIQPGGSLRLSCAASGFTVSSNYMSWVRQAPGKGLEWVSVIYSGGSTYYADSVKGRFTISRDNSKNTLYLQMNSLRAEDTAVYYCARFSGWNAFDIWGQGTMVTVSS
VL: DIVMTQTPSTLSASVGDRVTITCRASQSISSWLAWYQQKPGKAPKLLIYKASSLESGVPSRFSGSGSGTDFTLTISSLRPEDFATYYCQHSSTFGQGTRLEIK
notes: Fully human IgG; also called Wlr1G5
B8: WIr1B11 (antibody, V domains shown)
VH: EVQLVQSGAEVKKPGASVKVSCKASGYTFTSYDINWVRQATGQGPEWLGWLNPGSGKTGNAQNFQGRVFMTWDTSKDTAYMEMSSLRSDDTAVYYCARNLDYWGQGTLVTVSS
VL: DIVMTQTPSSLSASVGDRVTITCRASQSISSYLNWYQQKPGKAPKLLIYAASSLQSGVPSRFSGSRSGTDFTLTITNVQPEDFATYYCLQAYDFPITFGQGTKVEIK
notes: Fully human IgG; also called Wlr1B11
B9: WIr2B11 (antibody, V domains shown)
VH: B8 VH
VL: AIQLTQSPSTLSASVGDRVTITCRASQSISSWLAWYQQKPGKAPKLLIYATSRLQSGVPSRFSGSGSGTDFTLTINSLQPEDFATYYCQQYKSYPVTFGPGTKVDIK
notes: Fully human IgG; also called Wlr2B11
B10: WIr2A9 (antibody, V domains shown)
VH: QVQLVESGAEVKKPGASVKVSCKVSGYTLTELSMHWVRQAPGKGLEWMGGFDPEDGETIYAQKFQGRVTMTEDTSTDTAYMELSSLRSEDTAVYYCATGGSYYYGSGSYGSRPGYFDLWGRGTLVTVSS
VL: QSVLTQPASVSGSPGQSITISCTGTSSDVGSYNLVSWYQQHPGKAPKLMIYEGSKRPSGVPDRFSGSKSGNTASLSISGLQAEDEADYYCSSYTSSSTLVFGGGTKLTVL
notes: Fully human IgG; also called Wlr2A9
B11: WI1A5 (antibody, V domains shown)
VH: QVQLVQSGREMKKPGASMKVSCKASGYTFTKYGISWVRQAPGQGLEWMGWISADNGKTHYAQKLQGRVTMTTDTSTSTAYLELRRLRSDDTAVYFCANDGGYWGQGTLVTVSS
VL: QSVLTQPPSVSGAPGQRVTISCTGTSSNLGAGFPVYWYQQLPGKPPKVLIDGNNDRPSGVPDRVSGSKSDTSASLAITGLQAEDEADYYCLSYDSGLDGWVFGGGTKLTVL
notes: Fully human IgG; also called Wl1A5
B12: WIr1G10 (antibody, V domains shown)
VH: QVQLQQSGPGLVKPSQTLSLTCAISGDTVSSNSAAWNWIRQSPSRGLEWLGGTYYRSKWYNDYAVSVKSRITINPDTSKNQFSLQLNSVTPEDTAVYYCTRSAPAAFDYWGQGTLVTVSS
VL: QSVVTQPPSVSAAPGQKVTISCSGSTSNIGNNYVSWYQQLPGTAPKLLIYDNNKRPSGIPDRFSGSKSGTSATLGITGLQTGDEADYYCGTSDTSLSIYVFGTGTKVTVL
notes: Fully human IgG; also called Wlr1G10
B13: WIr2B12 (antibody, V domains shown)
VH: EVQLVQSGAEVKKPGASVKVSCKASGYTFTSYYMHWVRQAPGQGLEWMGIINPSGGSTSYAQKFQGRVTMTRDTSTSTAYMELSSLRSEDTAVYYCARDIDDYGDGVWGQGTMVTVSS
VL: B12 VL with V4L, T26S, G30A, K54E, S92W, T94G, I98A, Y99G, T103G, V107L
notes: Fully human IgG; also called Wlr2B12
B14: WIr1E2 (antibody, V domains shown)
VH: QMQLVQSGAEVKEPGSSVKVSCKASGDNSYPLNWVRQAPGQGLEWMGGIIPIFGTPNYAQKFEGRVTITADESTNTAYMEISSLRFEDTAMYYCAREGDGYNYSPLDYWGQGTLVTVSS
VL: QAVLTQPPSVSKGLRQTATLTCTGDSSNVGNQGAAWLQQHPGLPPKVLSYRNNSRPSGISERLFVSRSGNSASLTITGLQPEDEADYYCSAWDSSLGAWVFGGGTQLTVL
notes: Fully human IgG; also called Wlr1E2
B15: WIrF8 (antibody, V domains shown)
VH: EVQLLESGAEVKKPGASVKVSCRVPGYSLSELSMHWVRQAPGKGLEWMGGFDPEDGETIYAQKFQGRVTMTEDTSTDTAYMELSSLRSEDTAVYYCAASGGWEVHDAFDTWGQGTMVTVSS
VL: DIVMTQSPSSLSASVGDRVTITCRASQDISYYLAWYQQKPGKAPELLIYAGSSLQSGVPSRFSGSESGTDFTLTISSLQPEDVASYYCQQYKTAPYTFGQGTKLEIK
notes: Fully human IgG; also called WlrF8
B16: WI1E6 (antibody, V domains shown)
VH: EVQLLESGGGVVQPGRSLRLSCAASGFTFSSYGMHWVRQAPGKGLEWVAVIWYDGSNKYYADSVKGRFTISRDNSKNTLYLQMNSLRAEDTAVYYCARGSAFNIWGQGTMVTVSS
VL: QAVVTQPASVSGSPGQSITISCIGTSSDVGGYNYVSWYQQHPGKAPKLMIYDVSNRPSGVSNRFSGSKSGNTASLTISGLQAEDEADYYCSSYTTSNTFVFGTGTKVTVL
notes: Fully human IgG; also called Wl1E6
B17: WI1A6 (antibody, V domains shown)
VH: B16 VH
VL: LPVLTQPASVSGSPGQSITITCTGTSSDVGAYNYVSWYQQRPGKAPKLMIYDVSKRPSGVSNRFSGSKSGNTASLTISGLQAEDEADYYCSSYTSSSTYVVFGGGTKLTVL
notes: Fully human IgG; also called Wl1A6

Where a chain is given by its changes, count along the chain named.

The first assay addresses T1, recombinant mouse WISP1/His (mouse, UniProt O54775 23-367).
T1 construct: also called murine WISP1; mWISP1; not shown: His tag
T1 sequence (looked up): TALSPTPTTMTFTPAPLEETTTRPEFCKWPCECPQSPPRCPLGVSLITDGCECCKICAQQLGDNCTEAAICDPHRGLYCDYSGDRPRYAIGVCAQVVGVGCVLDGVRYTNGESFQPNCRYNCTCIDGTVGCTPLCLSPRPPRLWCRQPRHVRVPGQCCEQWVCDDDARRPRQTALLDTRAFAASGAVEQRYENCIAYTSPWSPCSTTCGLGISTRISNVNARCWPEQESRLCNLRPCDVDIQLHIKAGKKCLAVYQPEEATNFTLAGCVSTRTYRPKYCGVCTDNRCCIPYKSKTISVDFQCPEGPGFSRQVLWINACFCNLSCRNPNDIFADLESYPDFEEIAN
Description: ELISA screening. (In general: In an ELISA, binding on a coated surface is turned into a signal by an enzyme label.)
As to B1, the binding result was “binds”.

With B2, the binding result is recorded as “binds”.

In the case of B3, the binding result was “binds”.

Take B4: the binding result is recorded as “binds”.

As for B5, the binding result is on record as “binds”.

As for B6, the binding result is listed as “binds”.

In the case of B7, the binding result is listed as “binds”.

For the molecule B8, the binding result was “binds”.

B9: the binding result was “binds”.

For B10, the binding result is “binds”.

Consider B11, for which the binding result is given as “binds”.

Consider B12, for which the binding result is “binds”.

As to B13, the binding result is “binds”.

On to B14, for which the binding result is “binds”.

In the case of B15, the binding result was “binds”.

With B16, the binding result is “binds”.

Consider B17, for which the binding result is listed as “binds”.

The next assay deals with T2, recombinant human WISP1/His (human, UniProt O95388 23-367).
T2 construct: also called hWISP1; recombinant human WISP1 protein; not shown: His tag
T2 sequence (looked up): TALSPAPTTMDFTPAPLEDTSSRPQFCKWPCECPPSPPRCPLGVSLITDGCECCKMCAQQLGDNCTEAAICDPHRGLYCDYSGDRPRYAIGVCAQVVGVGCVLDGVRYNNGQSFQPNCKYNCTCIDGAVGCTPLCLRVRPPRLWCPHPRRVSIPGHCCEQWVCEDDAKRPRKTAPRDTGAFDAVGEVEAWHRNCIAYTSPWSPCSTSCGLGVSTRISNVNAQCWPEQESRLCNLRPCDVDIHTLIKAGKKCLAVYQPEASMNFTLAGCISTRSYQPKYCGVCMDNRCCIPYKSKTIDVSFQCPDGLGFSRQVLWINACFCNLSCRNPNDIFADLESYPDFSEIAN
The assay can be described thus: ELISA screening.
For B1, the binding result is recorded as “binds”.

Regarding B2, the binding result is given as “binds”.

As for B3, the binding result is “binds”.

Consider B4, for which the binding result is listed as “binds”.

With B5, the binding result is listed as “binds”.

As to B6, the binding result is on record as “binds”.

As to B7, the binding result is “binds”.

With B8, the binding result was “binds”.

B9: the binding result was “binds”.

Consider B10, for which the binding result is reported as “binds”.

For B11, the binding result was “binds”.

B12: the binding result was “binds”.

With B13, the binding result is “binds”.

Consider B14, for which the binding result is given as “binds”.

For the molecule B15, the binding result was “binds”.

Regarding B16, the binding result is “binds”.

As for B17, the binding result is on record as “binds”.
